# Experimental data as given in publication doi:10.1101/2022.05.30.494040.
# Assays:
# SNAP25 (human) = SNAP25 (human) (UniProt P60880); experiment: AlphaScreen or HTRF
# full-length SNAP23 = full-length SNAP23 (UniProt O00161); experiment: AlphaScreen or HTRF
# full-length Stx2 (human) = full-length Stx2 (human) (UniProt P32856); experiment: AlphaScreen or HTRF
# full-length Stx4 = full-length Stx4 (UniProt Q12846); experiment: AlphaScreen or HTRF
# [1] = target: Stx3 145-161 peptides (human) (UniProt Q13277); experiment: peptide or protein array
# UniProt Q12846, sequence (Q12846 whole entry): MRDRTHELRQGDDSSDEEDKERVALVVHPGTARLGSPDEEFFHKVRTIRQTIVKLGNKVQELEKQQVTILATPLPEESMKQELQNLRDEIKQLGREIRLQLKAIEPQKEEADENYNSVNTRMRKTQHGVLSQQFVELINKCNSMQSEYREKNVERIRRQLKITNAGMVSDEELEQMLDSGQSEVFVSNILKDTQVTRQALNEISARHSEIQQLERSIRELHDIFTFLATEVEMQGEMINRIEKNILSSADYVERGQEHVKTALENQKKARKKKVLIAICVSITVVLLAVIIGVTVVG
# UniProt P32856, sequence (P32856 whole entry): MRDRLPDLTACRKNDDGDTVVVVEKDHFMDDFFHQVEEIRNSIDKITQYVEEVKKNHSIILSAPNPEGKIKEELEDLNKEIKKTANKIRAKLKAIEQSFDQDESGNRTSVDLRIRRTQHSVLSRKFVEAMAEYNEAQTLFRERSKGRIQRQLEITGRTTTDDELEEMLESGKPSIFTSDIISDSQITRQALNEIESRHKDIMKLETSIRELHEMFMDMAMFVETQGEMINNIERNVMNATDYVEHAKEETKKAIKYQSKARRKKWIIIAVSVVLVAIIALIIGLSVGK
# UniProt P60880, sequence (P60880 whole entry): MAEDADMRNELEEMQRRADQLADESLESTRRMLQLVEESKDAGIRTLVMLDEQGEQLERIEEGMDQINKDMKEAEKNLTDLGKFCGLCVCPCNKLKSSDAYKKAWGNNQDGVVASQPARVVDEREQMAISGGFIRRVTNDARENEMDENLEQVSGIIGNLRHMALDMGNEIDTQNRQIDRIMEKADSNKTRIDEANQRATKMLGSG
# UniProt O00161, sequence (O00161 whole entry): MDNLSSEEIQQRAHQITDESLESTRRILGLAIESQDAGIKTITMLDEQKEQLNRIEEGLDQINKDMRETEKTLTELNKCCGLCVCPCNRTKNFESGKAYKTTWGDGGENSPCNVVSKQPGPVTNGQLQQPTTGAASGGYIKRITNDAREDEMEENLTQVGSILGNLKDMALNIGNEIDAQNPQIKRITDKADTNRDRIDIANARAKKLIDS
Substance,EC50 (SNAP25 (human)) [nM],EC50 (full-length SNAP23) [nM],EC50 (full-length Stx2 (human)) [nM],EC50 (full-length Stx4) [nM],fold weaker binding than Stx2 144-160 [1] [fold]
His-tagged recombinant Gβ1γ2 (from UniProt P62873;P59768) (complex; other documents disagree on this pair),45.2,,,,
His-tagged recombinant Gβ1γ2 (from UniProt P62873;P59768) (complex),,78.2,64.8,92.1,5
